Measurements taken from the supplement of paper PMC12636428.

What follows are sequences tested on Saccharomyces cerevisiae (assay: transcriptional activation domain activity (GFP:mCherry ratio, weighted mean of sorted bins, harmonized to initial dataset scale) (arbitrary fluorescence ratio units); higher = stronger transcriptional activation). Settings: beta-estradiol 1 µM; induction time 4 h.
Summary of the method: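 Values are activation activity, found as the read-weighted mean of bin median fluorescence, averaged across barcodes and then mapped linearly onto the initial dataset scale. Barcoded protein tiles fused to an estradiol-inducible synthetic transcription factor were integrated at the URA3 locus of GFP-reporter yeast diploids. Cells were induced for 4 hours at 30 °C with 1 uM beta-estradiol in SC, sorted into 8 bins by GFP:mCherry ratio, and barcode-sequenced, with tiles under 50 reads discarded.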

| Sequence | transcriptional activation domain activity |
| --- | --- |
| MLSLFSETGCTFLLVGLSIVVGVEKGSFLFYFVYLFTLYLYCGPILLGKLIFM | 49800 |
| MLSLIFLFMIPYIHDNIFISYSPITKFMHLFIPFIIITNIFLFYTYFSILLSL | 37600 |
| MLSLIWCFKAWLLTIISLPSYIILRTPLPFLFSSSPLFRSSPFHFFFTSLSTH | 48100 |
| MLSLKSFLPLQASLLFAAVGPISLFSLSDDVVRHIFCLKLQIFYLRFLLKWEH | 43700 |
| MLSLRQCYLVLCTLLIITGVGLASTIFIPVNPFYQLLLMENVAFPWIHFILFC | 49900 |
| MLSQSGLPKVLGLASAFVYSWTPMILLACYTVGSLCFYLIIPSLLGEILWYIY | 60100 |
| MLSRCFKCPYGAWGVIIFFIFFFYFFLNIPFFFVYYYLLFFVCSFFSFFFHFI | 38600 |
| MLSSKLNGRSQFICHLCHTGSLLTSVTLIFPFHHTYLHFLGWNLTLLTTVWFF | 60600 |
| MLSSWSTSLNLVFFSLTWTTIAMTYSPLQLEFFAPLLLRTFLYLLPSALFLLF | 67600 |
| MLSVRVVVLFAGHLCFLSSSYVLIRCFGDGFNSFVSFRFSSVWWWYLHTLCTH | 87900 |
| MLSVSLSFPFLLFFFSVSIFLLLLLLFSVSFILLLSLFFCSSFSFFNSFMVFF | 43100 |
| MLSYGSFFFLIFFVFFVISLGFLLSCSWMLYSHIWCCDGPRIFFLFVNLLFVS | 38300 |
| MLTEFCFNMLGRHDGKGLISNAVLNAWLKQLSDYFRARFTIWCRINILMDLYR | 42100 |
| MLTEVLEYCYVHGKKAYVLFNILQHVLDCHDYISFTHQLVLVMKYAKYQYVIA | 55100 |
| MLTHLHFVEQPLTPPFFSVSITSFLLRSFAFPPCVLPSVAFFLCLFCFLPLLV | 56500 |
| MLTILAQNQWFYIIVYIILSYLVIFIIGLFPSVLFFRLRHLHYSFSFYLEYLA | 32700 |
| MLTIYFPLLLFLCFHFFNRVKVWWVWVWGRVKLGWVYWFLYLCIWKGGWIRNR | 48300 |
| MLTLLLLTLIIFLSSTLVLLFFFLIPLFLICLLTFLLIFFSSPRAFFSFPHPT | 47800 |
| MLTLLSVTHGLLHKSLVHLGSIFDLCLLWAQGKYTNPILSCLLSLYLLSWLLY | 62700 |
| MLTWFFSYRLELLPFFYIIFSPIVFLLFSIFLLVLLRSFVCRLICFCLFLQSV | 56500 |
| MLVALCTYMIFNYYFFNFLLLFIFLYFTSYIVLSSSYSLVFISLIINSDFLFL | 57500 |

| Sequence | transcriptional activation domain activity |
| --- | --- |
| MLVICLLDLLLSIMRCKRNLIQFILVCTKDGFCVGLMTKSYKRSLLVKRLFCT | 39300 |
| MLVLILTLYYFSNYLKSTHQLLSMNLLSSDDLCGILVRDNIIFSILFTFPKIL | 63200 |
| MLVLLLLLLLLLLLLFLLLPLLLLLPLLLCLYMPCIVRCSNHEVHILLISGTG | 72900 |
| MLVRCPHLILNHKMPVLYLLFYLHIFHSLLLPFCIYASFFSFILFYQIGIFLL | 48400 |
| MLVRISLFLTLPFTLNLLPTMDLCCIGNVKILNYLSKCIHGSLCNHSIILIRL | 56300 |
| MLVRLFFCCYCCCLPVCLSVCLLHVVRCVMLLLTLMLFALLLRTCATLFFLFF | 61400 |
| MLVRLQNRLLLLGIFSHCVYGWHLEVDYVSLSDAIQTVVVQCRNLTFHITGLG | 53100 |
| MLVSVANLHYFFFPLSFGVCVLRYSSLAMCFFCIYCCLVTMLCILLLLLWSTI | 39800 |
| MLVVELLPAIESFFGHIFCTDFMFCFLFFYIIYIFFFSRFSVIANYTVMSLYF | 85300 |
| MLWGDTQILVVLLHYILPTYQFPRFYFYYMYLPLRSWLLVDNPFLFSYSALIQ | 63200 |
| MLWGNVGTSIKIWYGVFFCYCSIVLFRSSLYIINFFLLCFFFFFVFFLWFFYH | 44400 |
| MLWLVSWWLCLVVSNTLLFYLGEGGLVCFILCNSSFQVYLFLDLFIFLLFIHS | 39800 |
| MLWVCTSRKGESRVVCLGLAHLSIWIRGLLVLERILVCSMSLSCWRVGILKCT | 53800 |
| MLYFFFFYVYNVNIKQYLSIIMILFINGFSFYIYFLFHFLYIFFFFFLTITLS | 88500 |
| MLYIIMKINLFMKVIMLFLVKLIVHYLMILLSLVLLLILLSSFIYICYILVLF | 37800 |
| MLYINHFLHSPRGLVEQAKSLFFLYLSFFFLFFFFPFISFHFSFNVPFSLNCI | 50900 |
| MLYLCFLISFYSLCFLFSYFFNFVLDILFFYYFIIFLFSYFSIFLFSYFLICL | 54300 |
| MLYLYPLYLGYYLFLFLSISRLEKFLHIGSLITCLPRLVSLEIRLTLCLYYHL | 80100 |
| MLYQLFYFSRTKLIILVFFVLFSLLIISLFFFLFIPPFTFFFPFHMPEVFQNI | 38200 |
| MLYRVYLDIFFFLYCLFVLGAFQDTRRFLFKFWAFPLLKVWQVVTIHLTCTQY | 61800 |
| MLYSFRLLFILFFFLLEALSICRRCNVTGRGCFRDWDCWNACHQYAVSPRWGI | 41900 |

| Sequence | transcriptional activation domain activity |
| --- | --- |
| MLYSFSFTTIGYILAFNPPDGRFFYLMLLGLFVQHLIVYVILFVLILLPICVY | 34300 |
| MLYVRCVISYIHIYNIFIHVTVSVHPEWWAFVSLTCFTLHVYLLHFLSAVARC | 67000 |
| MLYYYHYLAVQSGLKRKYAFKNMYLCLLLYSLFFVFASINIVHLIKWQCYFFV | 45800 |
| MMACLVSGIGWCLLYFTCMYLLLIYYILSLFYPPLASCNSFSFFFLSFFFFAG | 67200 |
| MMAEGERPLATMCSVLSVCYVCVRLVLSNLIWIVLCSSPRPLPMALLSLLAHR | 32900 |
| MMAMAFDPGFRDDEVVQFLLYELGVSSLLFCFVCFGDFVDFLDPFAFWVDLLF | 48600 |
| MMAPSCSICLPLVLPPLLCQIFSPLILSLFPYPLHCLCMLFFQLIYMPLFFFF | 68200 |
| MMDCGRRTSFQAFIFLSLFLVHQVSFCCVYLICFFFFLFFLSFLYSFPFPFFF | 26400 |
| MMDCRRRTGFQAFFLSFLSLVLSSFFLLCLFNPYVCVFFLIFHYRLTFSVIWS | 49100 |
| MMELEGWDGGPYIWVDLVILFWLFVILLDWFFLLAIFSTVRGSPGLVGVFFFF | 52100 |
| MMFCLRSFIPLLLLPLPPSLSPLHLVLLLFLTYILNRPCIYCSFLLLILFVSS | 60600 |
| MMFETHFWSLSSLLLFFFSFFLFLSLYLGVSILFFQFPFPFPFPFPFFFYLFL | 39500 |
| MMFETHFWSLSSLLLLFFLSFFFFLYIWGSRFFFFQFPFPFPFPFPFFFSIFF | 53800 |
| MMFFFFFLVSFIYFWIGAPVGFFILKIKFVMLDVQSLHLAIFLICPHLCFYVM | 54400 |
| MMGLRELHAASREFAMLFWREPRLDLALFLLLFLFFFVLFLFFCLFFFFCLVF | 15100 |
| MMGLSLGFKCCFQMLSLFSILFSFHLVLRLLSFPFFSCSYCILYRFLFFCWGW | 24500 |
| MMHCLRYFLLLLFLPFPSAPPYLLLLFIVSMFLYHRPCAYCTFLIMSIFSATC | 76700 |
| MMHLSIRDEQKVSLCLTIYLFIFFFFFLILFLWLEGVYLFFLLMTFFLRPYSS | 43800 |
| MMHSLHPLSISILSLDFNLSYLLFVLPCHRIICSFFRLLAVLFHFFLFIGFYL | 60300 |
| MMKKKNWSYVVFWRGLPFFFFFFFFFFGEHFVLIFTSFVLFLLSLLCAGCVWV | 25000 |
| MMKTLAQMYPLASFSLFQGLKFFILLALMNECLLLCTALRRWLICTQLPGIYF | 49200 |

| Sequence | transcriptional activation domain activity |
| --- | --- |
| MMKVVGFLYQIYLIIYCVGWWFLLLVLFVFSFSFFFFLFFFFLFFSSTFYSLS | 43100 |
| MMLLLMLMILMMILTMMMLLLLHKQENEGCVLFLFLLWWLWLWFWLWCCWKSS | 35300 |
| MMLLSVRLCIVFFSFMAACFGIPYTPSILFASLFASALGLHILRIFFLVIVHF | 51300 |
| MMLPLVQGWGSTDGFFIFIFIFFIFAFLFNLSIYRSFFFLPFLFFYMEVLLRL | 73300 |
| MMLVGVVAFNVLKVIPVSDPRCIGVLLVGYVFQGLGFFMTFFYLAIYILRIMT | 43600 |
| MMLVQSIPVSRDVILGVLLRLLAPTVFLSSVVLALLLVSTLCKIPKQGRLRAW | 64600 |
| MMLVSSRSFLYWYGVSLTLLLLSLEFVWSFLLFFTWLVTLSLFPFLSSVSHCH | 60200 |
| MMLWWRWRWILLLMLMLMLRWRWWWHTSLWWRWSKCLLTRLLLLLLLWWWDSF | 55000 |
| MMMGTIVKSFFLFTFTFSIFFFYFFPRVLFTPFFFTYWTSAFFLLLFLFFFLF | 64900 |
| MMMGTIVKSFFLFTFTFSIFFFYFFPRVLFTPFFFYILDLSLFFIVVLIFFSF | 54300 |
| MMNKTPGFLSLIPPFVIDLILLRCCLDPNISLNVTYRTLYFLMWFFQSVYLAV | 53200 |
| MMNNNESEAENQRLLDELMNQTKVLQETLDFSLVTPTPHHNDDYKIHGSAYPG | 47300 |
| MMPRGSYLAFFLLLLFYSFLSLFTPLNFVFLFFLSPLLRLHTLFYLLYFFGLA | 42100 |
| MMRCRFGVVFRILPYYLFVFPQIFIYLLLDSFDVQSSLPLLLLYTSLIILVTW | 56900 |
| MMRKLAYFYALPEVQNSKVLQTIVKKGFVPLLIALIFPRVTEDQLRVVIRFCQ | 50000 |
| MMRRWNELGLDGWVQNQHGLDSFAFLQLAFRLPICCIFPSKILVVFPLLLLSA | 52900 |
| MMRSAANMGLISQPSNLLLVVQPCPPLLLCVLFPPPLSSYCLLLSLSLLLFFF | 38500 |
| MMSDSGQDEKTLPQADKNGTSQVAVPLEATEASEQALLRRLLRKTDLLVMPGL | 24200 |
| MMSGGMAYQVLFLYLLGYRLFYPRYFLFHSMFLFFIYCYMRCCPFRFTTILID | 58000 |
| MMSMFWGWHGQRNGVFSGVLGFGILLVTWFFFFFKFSPHILLIISVYGHFGFF | 81500 |
